This passage reports stoichiometry N results from PMC10907169.

Values joined by “and” are separate entries in the source; they are usually repeats but may differ in a detail not shown here. Identical values can stand only once.

The target of this assay is T1, Full-length human KIF5A heavy chain (WT), C-terminal FLAG tag (human), Q12840.
T1 chain: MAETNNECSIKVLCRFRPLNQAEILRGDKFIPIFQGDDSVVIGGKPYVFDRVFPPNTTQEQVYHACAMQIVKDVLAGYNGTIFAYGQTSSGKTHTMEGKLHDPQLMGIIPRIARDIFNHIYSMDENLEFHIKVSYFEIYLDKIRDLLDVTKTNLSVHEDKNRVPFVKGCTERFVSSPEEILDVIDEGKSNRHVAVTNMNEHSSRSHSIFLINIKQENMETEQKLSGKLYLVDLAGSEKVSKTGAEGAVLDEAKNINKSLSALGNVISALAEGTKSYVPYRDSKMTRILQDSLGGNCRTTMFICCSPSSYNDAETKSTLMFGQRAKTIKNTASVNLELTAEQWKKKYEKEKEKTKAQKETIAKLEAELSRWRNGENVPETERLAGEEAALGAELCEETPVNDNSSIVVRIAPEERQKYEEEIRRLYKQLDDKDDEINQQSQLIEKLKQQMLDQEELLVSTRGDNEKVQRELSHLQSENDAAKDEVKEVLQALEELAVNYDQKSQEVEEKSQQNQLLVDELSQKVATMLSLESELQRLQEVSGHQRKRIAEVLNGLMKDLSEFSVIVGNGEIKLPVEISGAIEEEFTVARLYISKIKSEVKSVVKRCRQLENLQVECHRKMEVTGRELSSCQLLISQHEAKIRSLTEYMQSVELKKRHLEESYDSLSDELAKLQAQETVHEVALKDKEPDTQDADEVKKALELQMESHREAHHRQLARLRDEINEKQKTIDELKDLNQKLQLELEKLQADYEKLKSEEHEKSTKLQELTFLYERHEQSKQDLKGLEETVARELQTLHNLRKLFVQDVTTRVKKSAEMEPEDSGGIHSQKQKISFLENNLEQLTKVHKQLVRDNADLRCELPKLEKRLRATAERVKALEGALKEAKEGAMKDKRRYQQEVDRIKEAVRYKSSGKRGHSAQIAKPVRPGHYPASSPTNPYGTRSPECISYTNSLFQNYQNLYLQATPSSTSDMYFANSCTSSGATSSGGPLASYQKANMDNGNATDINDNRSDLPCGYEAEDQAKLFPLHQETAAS
Kind of assay: mass photometry; single-molecule landing assay, Refeyn OneMP, 25 nM KIF5A, room temperature (~23 °C); results say low salt buffer (150 mM KCl), methods name PBS; monomer to dimer, and dimers to tetramer. As to conditions: remark: other sources report otherwise.

B1: Full-length human KIF5A heavy chain (WT), C-terminal FLAG tag, Q12840 1-1032 (natural protein)
chain: T1 chain
As for B1, the stoichiometry N is 2 and 4.
